Target: EfpA^EM (BRIL-P171R EfpA, Mycobacterium tuberculosis efflux protein A) (not stated | Mycobacterium tuberculosis) (UniProt P9WJY4)
Test: cryo-EM structure; EfpA-EM mixed with anti-BRIL Fab and anti-Fab elbow Nb (1:1.5:2), separated on Superose 6 in 50 mM Tris-Cl pH 7.5, 300 mM NaCl, 0.02% GDN; apo sample gave antiparallel (dominant) and parallel dimers; samples with BRD-8000.3 or BRD-9327 gave antiparallel dimers

“EfpA^EM (BRIL-P171R EfpA, Mycobacterium tuberculosis efflux protein A) (from UniProt P9WJY4 49-530)” showed a stoichiometry N of 2.

— PMC11961569
